In US20250051437A1 one finds Kd, Cross Reactivity by Flow and FL4-H data, which are given here for three molecules.

Test [1] deals with monkey (crab-eating macaque) CDH17 fused to moxGFP, overexpressed on HEK293T cells (monkey (crab-eating macaque)). Briefly: KinExA, cell-based, HEK293T overexpressing monkey CDH17 fusion (FIG. 16). On the technique in general: A kinetic exclusion assay measures how much of one partner remains free in solution.
Test [2] has the same target. Nature of the test: KinExA, cell-based, HEK293T monkey CDH17mGFP mass population.
For test [3] the target is unchanged. Nature of the test: flow cytometry on HEK293T monkey CDH17mGFP mass population, 20 µg/ml.
Test [4] has the same target. Nature of the test: flow cytometry (BD C6), 1 µg antibody on HEK293T Macaque CDH17 moxGFP cells, labelled anti-human IgG Fc secondary antibody; same antibody on HEK293T Parental: 817.99. In general terms: Flow cytometry measures light scatter and fluorescence of single cells or particles in a stream.
For test [5] the target is unchanged. Nature of the test: flow cytometry (BD C6), 1 µg antibody on HEK293T Macaque CDH17 moxGFP cells, labelled anti-human IgG Fc secondary antibody; same antibody on HEK293T Parental: 593.57.
The target is the same in test [6]. Briefly: flow cytometry (BD C6), 1 µg antibody on HEK293T Macaque CDH17 moxGFP cells, labelled anti-human IgG Fc secondary antibody; same antibody on HEK293T Parental: 600.46.

B1: humanized anti-CDH17 antibody 07-0653-h43 (antibody, human IgG1, V domains shown)
VH: QVQLVQSGAEVKKPGASVKVSCKASGYTFTDYYMNWVRQAPGQGLEWMGVIYPYSGGIGYAQKFQGRVTMTVDKSTSTAYMELSSLRSEDTAVYYCARGRGDYFGLFDFWGQGTTVTVSS
VL: DIQLTQSPSSLSASVGDRVTITCRATSSLSYIHWYQQKPGKAPKPLIYEISKLASGVPSRFSGSGSGTDYTLTISSLQPEDFATYYCQQWNYPFTFGQGTKLEIK
Turning to B1, the Kd (commonly the free concentration of one partner at which half of the binding sites on the other are occupied at equilibrium, for simple one-to-one binding) in test [1] is < 1 nM; in test [2], 0.946 nM. Besides, in test [3], the Cross Reactivity by Flow is 29800. In test [4], the FL4-H was 182000.

B2: humanized anti-CDH17 antibody 07-0646-h7 (antibody, human IgG1, V domains shown)
VH: QVQLVQSGAEVKKPGASVKMSCKASGYTFTSYNMHWVRQAPGQGLEWIGAIYPGNGDTSYAQKFQGRATLTVDTSTSTAYMELSSLRSEDTAVYYCARGRGRYFEYWGQGTTLTVSS
VL: DIQLTQSPSSLSASVGDRVTMTCRASSSVSSSYLHWYQQKPGKAPKLLIYSTSNLASGVPSRFSGSGSGTDYTLTISSVQPEDFATYYCQQYDSSPSTFGQGTKLEIK
Consider B2, for which the Kd was < 1 nM in test [1] and 0.657 nM in test [2]. Moreover, in test [5], the FL4-H came to 145000. In test [3], this molecule yielded a Cross Reactivity by Flow of 16900.

B3: humanized anti-CDH17 antibody 07-0663-h7 (antibody, human IgG1, kappa, V domains shown)
VH: QVQLVQSGAEVKKPGSSVKISCKVSGYTFTDHTIHWMRQAPGQGLEWIGYIFPRDDIVVYAQKFQGRATLTADKSTSTAYMELSSLRSEDTAVYYCARPPYYYSRNFYFDYWGQGTTLTVSS
VL: DIQMTQSPSSLSASVGDRVTITCRVSSIISSSKLHWYQQKPGKAPKPLIYGTSTLASGVPSRFSGSGSGTDYTLTISSLQPEDFATYYCQQWSNYPFTFGQGTKLEIKR
On to B3, for which the Kd is < 1 nM in test [1] and 0.336 nM in test [2]. Also, in test [6], the FL4-H came out at 159000. The Cross Reactivity by Flow in test [3] worked out at 41300.
